Experimental data as given in the supplement of paper PMC10724198.
± gives the standard deviation of the averaged measurements.

Key:
Saccharomyces cerevisiae [1] = assay: protein stability index of tFT-peptide fusion (C-terminal peptide) (PSI (0-1 scale)); higher = more stable (slower turnover); conditions: genetic background: wild type; temperature: 30 C
Saccharomyces cerevisiae [2] = assay: as above
Description: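 MPS profiling in S. cerevisiae of the tFT-X12 degron library: putative degron peptides plus stable controls, 12 aa, fused to the C-terminus of a sfGFP-mCherry timer. Cells are FACS-sorted into 8 mCherry/sfGFP bins and deep-sequenced. PSI runs from 0 (unstable) to 1 (stable). Backgrounds are wild type, das1Δ and doa10Δ at 30 °C, and wild type, das1Δ, cdc34-1 and cdc53-1 at 37 °C; 2-3 technical replicates each.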

[3] = genetic background: cdc34-1, temperature: 37 C
[4] = genetic background: cdc53-1, temperature: 37 C
[5] = genetic background: das1 deletion, temperature: 30 C
[6] = genetic background: das1 deletion, temperature: 37 C
[7] = genetic background: doa10 deletion, temperature: 30 C
[8] = genetic background: wild type, temperature: 30 C
[9] = genetic background: wild type, temperature: 37 C
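Further: PSI is a weighted mean of sequencing reads over stability bins, variants kept only with over 10 reads, mCherry proximal and sfGFP distal, peptide attached via GGGS linker.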

| Sequence | protein stability index (Saccharomyces cerevisiae [1]) | protein stability index (Saccharomyces cerevisiae [2]; [3]) | protein stability index (Saccharomyces cerevisiae [2]; [4]) | protein stability index (Saccharomyces cerevisiae [2]; [5]) | protein stability index (Saccharomyces cerevisiae [2]; [6]) | protein stability index (Saccharomyces cerevisiae [2]; [7]) | protein stability index (Saccharomyces cerevisiae [2]; [8]) | protein stability index (Saccharomyces cerevisiae [2]; [9]) |
| --- | --- | --- | --- | --- | --- | --- | --- | --- |
| RAEASFFLPKVG | 0.435 ± 0.07 | 0.675 ± 0.046 | 0.711 ± 0.0076 | 0.668 ± 0.033 | 0.732 ± 0.016 | 0.41 ± 0.013 | 0.446 ± 0.01 | 0.6398 ± 0.0037 |
| LWRRSLLLLRCC | 0.0946 ± 0.013 | 0.0526 ± 0.0063 | 0.0759 ± 0.04 | 0.173 ± 0.029 | 0.244 ± 0.015 | 0.0637 ± 0.013 | 0.0611 ± 0.0038 | 0.0618 ± 0.0063 |
| CILVSVDVIVFF | 0.212 ± 0.005 | 0.0529 ± 0.014 | 0.147 ± 0.043 | 0.118 ± 0.051 | 0.207 ± 0.0033 | 0.103 ± 0.016 | 0.136 ± 0.026 | 0.166 ± 0.036 |
| LLPSNFLLLVGV | 0.289 ± 0.032 | 0.219 ± 0.051 | 0.204 ± 0.011 | 0.217 ± 0.03 | 0.325 ± 0.014 | 0.208 ± 0.012 | 0.231 ± 0.023 | 0.2857 ± 0.0024 |
| NMRYRATIEACA | 0.356 ± 0.0097 | 0.258 ± 0.043 | 0.319 ± 0.0071 | 0.222 ± 0.029 | 0.397 ± 0.005 | 0.174 ± 0.021 | 0.226 ± 0.029 | 0.38 ± 0.023 |
| FFCCFVFVLGFC | 0.419 ± 0.021 | 0.328 ± 0.011 | 0.443 ± 0.01 | 0.312 ± 0.028 | 0.4401 ± 0.0036 | 0.283 ± 0.014 | 0.291 ± 0.019 | 0.393 ± 0.0054 |
| FASVFCVVTGYV | 0.48 ± 0.072 | 0.551 ± 0.037 | 0.611 ± 0.027 | 0.423 ± 0.018 | 0.597 ± 0.0062 | 0.406 ± 0.01 | 0.429 ± 0.013 | 0.58585 ± 7.1e-07 |
| DRLRSGLSLLLA | 0.4925 ± 0.0035 | 0.64 ± 0.014 | 0.6817 ± 0.0049 | 0.556 ± 0.018 | 0.669 ± 0.0078 | 0.365 ± 0.015 | 0.411 ± 0.02 | 0.583 ± 0.0065 |
| GGFRVLLWCVVW | 0.28 ± 0.016 | 0.19 ± 0.046 | 0.3237 ± 0.0018 | 0.214 ± 0.041 | 0.399 ± 0.0044 | 0.184 ± 0.0074 | 0.208 ± 0.03 | 0.35 ± 0.028 |
| SLVIRLNIRLIL | 0.394 ± 0.011 | 0.462 ± 0.021 | 0.435 ± 0.0077 | 0.423 ± 0.03 | 0.414 ± 0.034 | 0.329 ± 0.0061 | 0.325 ± 0.018 | 0.361 ± 0.019 |
